This data set deals with T1, PsdR (Pseudomonas aeruginosa PAO1?) (UniProt Q9HVS2).
T1 sequence: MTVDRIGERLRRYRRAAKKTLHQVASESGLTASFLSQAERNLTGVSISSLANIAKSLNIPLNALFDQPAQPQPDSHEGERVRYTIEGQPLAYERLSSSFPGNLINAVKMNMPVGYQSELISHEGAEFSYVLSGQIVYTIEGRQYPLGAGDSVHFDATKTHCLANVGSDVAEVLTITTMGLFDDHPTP
The experiment in a line: EMSA. As to conditions: EMSA: 0.5 nM Cy5 probe, 10 mM Tris-HCl pH 8, 50 mM KCl, 10 mM MgCl2, 10% glycerol, 0.1 mg/ml BSA, 25 ng/ul poly(dI-dC), 15 min at 25 C; competition with 100 nM …. (In general: In EMSA bound probe runs differently from free probe, usually more slowly.)

As to “CCCGAACCCCTATTTTTAAGTGTGACTGAAAATTTGTTTTGACCTGAATTTAAGCTCGACTTAAATTTCAGCCCGGTCCAGACGAGGAGAACA (double strand) [pPA4498 (mdpA promoter) wild type]”, the binding result is listed as “binds”. For “CCCGAACCCCTATTTTTAAGTGTGACTGAAAATTTGTTTTGACCTGAATCAGTTCTCGACTTAAATTTCAGCCCGGTCCAGACGAGGAGAACA (double strand) [pPA4498 (mdpA promoter) half-site mutant]”, the binding entry is reported as “binds more weakly”.

The values are drawn from article PMC7901475.
